B1: His6-FLC (flowering locus C, full length) (natural protein, Arabidopsis thaliana, UniProt Q9S7Q7 1-196, looked up)
chain: MGRKKLEIKRIENKSSRQVTFSKRRNGLIEKARQLSVLCDASVALLVVSASGKLYSFSSGDNLVKILDRYGKQHADDLKALDHQSKALNYGSHYELLELVDSKLVGSNVKNVSIDALVQLEEHLETALSVTRAKKTELMLKLVENLKEKEKMLKEENQVLASQMENNHHVGAEAEMEMSPAGQISDNLPVTLPLLN
notes: Flowering locus C (FLC), MADS-box transcription factor, Arabidopsis; full-length cDNA in pET28a; The printed name puts His6 before FLC; also called Arabidopsis FLC; source: E. coli BL21/DE3 (pLysS), purified (Ni2+-NTA resin)

Legend:
GST–FLC, full length = molecular target: T1, GST–FLC, full length (Arabidopsis thaliana, UniProt Q9S7Q7 1-196); assay: pull-down; 2 μg GST–FLC bait and 2 μg His6-FLC or His6-mFLC prey in 1 ml binding buffer (50 mM TRIS-HCl pH 7.5, 100 mM NaCl, 1% Triton X-100, 0.2% glycerol, 0.5 mM β-mercaptoethanol); 25 °C 2 h; glutathione resin; anti-His blot; settings: both partners purified
T1 construct: Flowering locus C (FLC), Arabidopsis, full-length GST–FLC bait; The construct section describes only GST–FLC-Myc (pGEX4T-1)
T1 sequence (looked up): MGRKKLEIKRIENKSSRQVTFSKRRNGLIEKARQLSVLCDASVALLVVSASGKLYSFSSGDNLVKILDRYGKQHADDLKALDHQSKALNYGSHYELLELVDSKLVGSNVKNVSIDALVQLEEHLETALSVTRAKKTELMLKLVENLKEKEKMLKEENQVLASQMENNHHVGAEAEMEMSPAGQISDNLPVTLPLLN

[1] = molecular target: B1; assay: pull-down; 2 μg GST–AtSIZ1 (full length or deletion mutant) or GST bait and 2 μg His6-FLC prey in 1 ml 50 mM TRIS-HCl pH 7.5, 100 mM NaCl, 1% Triton X-100, 0.2% glycerol, 0.5 mM β-mercaptoethanol; 25 °C 2 h; glutathione resin; anti-His blot; settings: both partners purified

Row | Binder | binding result (GST–FLC, full length) | binding result [1]
1 | B1 | binds | 
2 | GST–AtSIZ1 (D3), amino acids 1–100 (domain or fragment, Arabidopsis thaliana, UniProt Q680Q4 1-100, looked up, AtSIZ1, Arabidopsis, amino acids 1-100 (N-terminal region containing the SAP domain), in pGEX4T-1; also called N-terminal region containing the SAP domain of AtSIZ1; source: E. coli BL21/DE3 (pLysS), purified (glutathione resin)) MDLEANCKEKLSYFRIKELKDVLTQLGLSKQGKKQELVDRILTLLSDEQAARLLSKKNTVAKEAVAKLVDDTYRKMQVSGASDLASKGQVSSDTSNLKVK |  | binds
3 | His6-mFLC (FLC K154R) (natural protein, Arabidopsis thaliana, UniProt Q9S7Q7 1-196, looked up, Flowering locus C (FLC), Arabidopsis, full length with the sumoylation site mutation K154R; The construct section describes His6-FLC(K154R)-Myc only; also called mutant FLC; source: E. coli BL21, purified (Ni2+-NTA resin)) MGRKKLEIKRIENKSSRQVTFSKRRNGLIEKARQLSVLCDASVALLVVSASGKLYSFSSGDNLVKILDRYGKQHADDLKALDHQSKALNYGSHYELLELVDSKLVGSNVKNVSIDALVQLEEHLETALSVTRAKKTELMLKLVENLKEKEKMLREENQVLASQMENNHHVGAEAEMEMSPAGQISDNLPVTLPLLN | binds | 
